Legend:
HeLa Kyoto [1] = assay: melting temperature (median over replicates), in situ; higher = more thermally stable
HeLa Kyoto [2] = assay: thermal stability score vs G1/S (z-score of summed log2 fold changes over temperatures); higher = more thermally stable than in G1/S
HeLa Kyoto [3] = assay: solubility change mitosis vs G1/S (difference of NP-40 vs SDS log2 ratios) (log2 ratio difference); higher = more soluble in mitosis
HeLa Kyoto [4] = assay: solubility in G1/S (NP-40 vs SDS abundance) (log2 ratio); higher = more soluble; details: cell cycle stage: G1/S
[5] = cell cycle stage: early G1 (4.5 h after nocodazole release)
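Throughout, for melting temperature (median over replicates), in situ: HeLa Kyoto cells synchronized by double thymidine or nocodazole block, proteins quantified by TMT10plex mass spectrometry, three independent biological replicates.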
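Throughout, for solubility change mitosis vs G1/S (difference of NP-40 vs SDS log2 ratios): synchronized HeLa Kyoto cells (double thymidine block for G1/S, nocodazole release for mitosis), protein amounts in NP-40 versus SDS lysates quantified by mass spectrometry, three biological replicates.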
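Throughout, for solubility in G1/S (NP-40 vs SDS abundance): HeLa Kyoto cells arrested at G1/S by double thymidine block, proteins quantified by TMT10plex mass spectrometry in mild NP-40 versus SDS extracts, three biological replicates.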
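Throughout, for thermal stability score vs G1/S (z-score of summed log2 fold changes over temperatures): synchronized HeLa Kyoto cells, proteins quantified by TMT10plex mass spectrometry, three biological replicates, mitosis taken 0.5 h after nocodazole release, G1/S directly after double thymidine block.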

Sequence of ACP2 (chain, as listed by the source): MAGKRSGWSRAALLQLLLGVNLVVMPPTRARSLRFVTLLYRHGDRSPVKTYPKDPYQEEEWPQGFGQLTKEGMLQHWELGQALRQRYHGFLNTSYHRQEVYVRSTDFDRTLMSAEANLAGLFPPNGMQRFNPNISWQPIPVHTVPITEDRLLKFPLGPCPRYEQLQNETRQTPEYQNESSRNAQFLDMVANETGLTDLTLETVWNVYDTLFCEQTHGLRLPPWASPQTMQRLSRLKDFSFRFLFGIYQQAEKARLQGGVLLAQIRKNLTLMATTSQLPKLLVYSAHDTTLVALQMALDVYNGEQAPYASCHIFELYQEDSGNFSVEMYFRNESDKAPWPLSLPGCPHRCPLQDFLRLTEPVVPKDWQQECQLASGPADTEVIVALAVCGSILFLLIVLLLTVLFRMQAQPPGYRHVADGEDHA
Sequence of AFG3L2 (chain, as listed by the source): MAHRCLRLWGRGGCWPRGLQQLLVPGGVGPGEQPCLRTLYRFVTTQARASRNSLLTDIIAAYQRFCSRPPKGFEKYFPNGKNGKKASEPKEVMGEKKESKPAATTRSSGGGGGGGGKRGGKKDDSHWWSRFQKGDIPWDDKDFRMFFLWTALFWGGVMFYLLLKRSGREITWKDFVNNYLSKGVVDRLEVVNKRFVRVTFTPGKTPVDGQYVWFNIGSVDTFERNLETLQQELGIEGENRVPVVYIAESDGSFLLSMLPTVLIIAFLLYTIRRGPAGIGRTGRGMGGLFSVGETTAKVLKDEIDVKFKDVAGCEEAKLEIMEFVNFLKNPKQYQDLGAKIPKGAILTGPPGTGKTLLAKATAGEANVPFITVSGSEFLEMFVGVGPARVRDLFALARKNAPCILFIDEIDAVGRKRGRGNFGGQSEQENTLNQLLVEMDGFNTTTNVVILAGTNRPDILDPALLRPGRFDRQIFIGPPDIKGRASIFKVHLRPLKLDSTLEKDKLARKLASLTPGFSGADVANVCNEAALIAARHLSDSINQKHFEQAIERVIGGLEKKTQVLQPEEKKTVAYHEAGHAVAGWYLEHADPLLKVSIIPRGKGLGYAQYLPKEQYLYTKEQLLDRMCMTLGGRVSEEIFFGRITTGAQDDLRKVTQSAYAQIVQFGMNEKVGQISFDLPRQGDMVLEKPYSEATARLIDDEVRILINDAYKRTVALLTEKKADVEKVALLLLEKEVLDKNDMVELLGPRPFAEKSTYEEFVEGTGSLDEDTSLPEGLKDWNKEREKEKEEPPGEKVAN
Sequence of AGAP3 (chain, as listed by the source): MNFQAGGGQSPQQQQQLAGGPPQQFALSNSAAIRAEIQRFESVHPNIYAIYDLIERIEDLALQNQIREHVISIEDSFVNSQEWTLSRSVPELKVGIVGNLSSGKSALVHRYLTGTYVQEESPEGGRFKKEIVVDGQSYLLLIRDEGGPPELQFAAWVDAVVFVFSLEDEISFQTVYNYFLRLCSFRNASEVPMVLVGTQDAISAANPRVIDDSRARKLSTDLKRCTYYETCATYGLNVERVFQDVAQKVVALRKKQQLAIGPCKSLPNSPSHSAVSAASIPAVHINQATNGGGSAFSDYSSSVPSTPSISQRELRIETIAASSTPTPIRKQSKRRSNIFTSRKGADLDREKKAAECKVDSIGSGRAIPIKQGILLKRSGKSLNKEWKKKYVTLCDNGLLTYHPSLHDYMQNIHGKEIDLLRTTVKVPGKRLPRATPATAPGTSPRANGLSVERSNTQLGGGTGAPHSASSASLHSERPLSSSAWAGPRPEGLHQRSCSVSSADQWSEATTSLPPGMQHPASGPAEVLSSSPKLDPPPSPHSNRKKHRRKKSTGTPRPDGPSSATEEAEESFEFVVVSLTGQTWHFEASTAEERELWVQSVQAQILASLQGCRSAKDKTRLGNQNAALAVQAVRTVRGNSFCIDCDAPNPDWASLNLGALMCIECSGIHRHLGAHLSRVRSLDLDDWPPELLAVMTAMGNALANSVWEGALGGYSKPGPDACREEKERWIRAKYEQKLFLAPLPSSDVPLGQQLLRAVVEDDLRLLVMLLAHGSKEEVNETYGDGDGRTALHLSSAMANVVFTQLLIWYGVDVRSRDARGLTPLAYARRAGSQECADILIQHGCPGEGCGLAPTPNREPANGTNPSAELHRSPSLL
Sequence of ALDH16A1 (chain, as listed by the source): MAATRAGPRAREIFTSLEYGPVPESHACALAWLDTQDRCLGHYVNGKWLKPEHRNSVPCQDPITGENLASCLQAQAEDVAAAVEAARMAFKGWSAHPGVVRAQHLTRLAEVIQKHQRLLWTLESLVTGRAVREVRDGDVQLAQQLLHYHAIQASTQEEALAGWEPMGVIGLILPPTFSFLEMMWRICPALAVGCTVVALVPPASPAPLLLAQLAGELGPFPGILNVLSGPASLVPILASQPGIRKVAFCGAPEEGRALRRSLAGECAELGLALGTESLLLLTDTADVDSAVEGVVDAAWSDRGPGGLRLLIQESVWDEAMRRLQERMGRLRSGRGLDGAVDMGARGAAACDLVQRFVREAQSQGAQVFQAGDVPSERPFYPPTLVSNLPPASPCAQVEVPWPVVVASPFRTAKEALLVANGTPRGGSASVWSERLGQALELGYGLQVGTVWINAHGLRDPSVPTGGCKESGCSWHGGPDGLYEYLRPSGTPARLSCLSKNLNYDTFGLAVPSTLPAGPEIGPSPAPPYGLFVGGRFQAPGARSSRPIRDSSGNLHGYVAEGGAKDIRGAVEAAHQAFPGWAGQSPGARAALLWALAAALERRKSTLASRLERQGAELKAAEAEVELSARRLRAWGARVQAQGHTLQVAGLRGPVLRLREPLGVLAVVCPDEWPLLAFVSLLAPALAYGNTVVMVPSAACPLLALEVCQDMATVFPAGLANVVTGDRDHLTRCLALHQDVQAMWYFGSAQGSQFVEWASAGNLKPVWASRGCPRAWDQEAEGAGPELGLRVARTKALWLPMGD
Sequence of ARNT (chain, as listed by the source): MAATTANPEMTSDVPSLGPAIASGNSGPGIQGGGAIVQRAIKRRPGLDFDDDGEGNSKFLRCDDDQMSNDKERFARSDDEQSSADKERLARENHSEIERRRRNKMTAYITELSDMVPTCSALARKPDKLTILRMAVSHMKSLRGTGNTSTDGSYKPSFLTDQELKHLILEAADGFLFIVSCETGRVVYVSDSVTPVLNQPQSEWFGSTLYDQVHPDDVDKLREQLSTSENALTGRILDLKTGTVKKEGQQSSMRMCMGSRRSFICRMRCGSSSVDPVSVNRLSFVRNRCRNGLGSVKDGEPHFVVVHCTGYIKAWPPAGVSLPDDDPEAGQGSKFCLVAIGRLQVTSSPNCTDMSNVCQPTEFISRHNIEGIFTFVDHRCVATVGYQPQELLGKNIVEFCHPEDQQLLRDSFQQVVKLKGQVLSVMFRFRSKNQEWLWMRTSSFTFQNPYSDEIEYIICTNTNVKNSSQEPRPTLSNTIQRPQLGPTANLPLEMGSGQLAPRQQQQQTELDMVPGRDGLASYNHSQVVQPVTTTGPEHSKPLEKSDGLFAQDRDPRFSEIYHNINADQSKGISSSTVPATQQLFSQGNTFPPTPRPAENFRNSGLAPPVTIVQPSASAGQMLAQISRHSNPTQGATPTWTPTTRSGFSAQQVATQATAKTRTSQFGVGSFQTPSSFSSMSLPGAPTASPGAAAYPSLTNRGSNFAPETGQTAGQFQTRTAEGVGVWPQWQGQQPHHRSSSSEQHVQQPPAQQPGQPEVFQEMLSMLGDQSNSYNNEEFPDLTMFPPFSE
Sequence of ASNA1 (chain, as listed by the source): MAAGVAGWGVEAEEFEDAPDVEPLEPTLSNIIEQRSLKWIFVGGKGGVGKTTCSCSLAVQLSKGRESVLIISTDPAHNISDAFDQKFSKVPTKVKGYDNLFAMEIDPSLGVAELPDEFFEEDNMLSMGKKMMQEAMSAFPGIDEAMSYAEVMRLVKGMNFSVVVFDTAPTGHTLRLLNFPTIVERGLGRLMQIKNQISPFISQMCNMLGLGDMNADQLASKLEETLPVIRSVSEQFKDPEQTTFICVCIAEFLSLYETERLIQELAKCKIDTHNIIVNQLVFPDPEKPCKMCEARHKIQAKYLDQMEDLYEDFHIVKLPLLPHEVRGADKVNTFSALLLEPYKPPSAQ

Row | Substance | melting temperature (HeLa Kyoto [1]; cell cycle stage: G1/S) [°C] | melting temperature (HeLa Kyoto [1]; cell cycle stage: mitosis) [°C] | thermal stability score (HeLa Kyoto [2]; [5]) | thermal stability score (HeLa Kyoto [2]; cell cycle stage: mitosis) | solubility change mitosis (log2) (HeLa Kyoto [3]) | solubility in G1/S (log2) (HeLa Kyoto [4])
1 | ABCC2 | 51.6 | 51.6 | 0.294 | -0.626 | -0.0305 | -0.128
2 | ABCC5 | 53.6 | 53.8 | -0.48 | -1.25 | 0.0132 | -0.243
3 | ACP2 | 56.1 | 57.2 | -1.34 | -0.755 | 0.018 | 0.434
4 | AFG3L2 | 51.8 | 51.9 | 2.84 | 0.443 | -0.0792 | 0.107
5 | AGAP3 | 49.3 | 49.9 | 0.047 | 0.315 | -0.0465 | 0.259
6 | AGL | 51.1 | 50.6 | -0.229 | -0.757 | -0.204 | -0.215
7 | AHCTF1 | 50.7 | 50.5 | -1.63 | -0.353 | 1.06 | -1.38
8 | ALDH16A1 | 58 | 56.3 | -4.57 | -4.01 | -0.043 | 0.152
9 | ARHGEF5 | 50.6 | 51.4 | 0.0128 | 1.32 | -0.0134 | 0.0254
10 | ARNT | 51.9 | 51.7 | 0.603 | 0.868 | -0.182 | 0.243
11 | ASNA1 | 53.4 | 54.6 | 0.0219 | 1.19 | -0.258 | 0.349
12 | ATG3 | 54.3 | 54.1 | 0.129 | -0.694 | -0.0379 | 0.11
